Results on 4 molecules are retold here after paper PMC12528898 (The Journal of Biological Chemistry, 2025).

This assay has as its target T1, mNeon PPM1H (full-length PPM1H with mNeon inserted into loop 1 at position 125) (human, UniProt Q9ULR3 1-514).
T1 construct: PPM1H phosphatase, human, full length; mNeon inserted into loop 1 (residues 115-133) at position 125; the plasmid is pET15b His SUMO mNeon PPM1H; His-SUMO removed by Ulp1 before gel filtration; also called WT PPM1H; HisSUMO-mNeon PPM1H; not shown: mNeon, internal (loop 1, at position 125), kept
T1 sequence (looked up): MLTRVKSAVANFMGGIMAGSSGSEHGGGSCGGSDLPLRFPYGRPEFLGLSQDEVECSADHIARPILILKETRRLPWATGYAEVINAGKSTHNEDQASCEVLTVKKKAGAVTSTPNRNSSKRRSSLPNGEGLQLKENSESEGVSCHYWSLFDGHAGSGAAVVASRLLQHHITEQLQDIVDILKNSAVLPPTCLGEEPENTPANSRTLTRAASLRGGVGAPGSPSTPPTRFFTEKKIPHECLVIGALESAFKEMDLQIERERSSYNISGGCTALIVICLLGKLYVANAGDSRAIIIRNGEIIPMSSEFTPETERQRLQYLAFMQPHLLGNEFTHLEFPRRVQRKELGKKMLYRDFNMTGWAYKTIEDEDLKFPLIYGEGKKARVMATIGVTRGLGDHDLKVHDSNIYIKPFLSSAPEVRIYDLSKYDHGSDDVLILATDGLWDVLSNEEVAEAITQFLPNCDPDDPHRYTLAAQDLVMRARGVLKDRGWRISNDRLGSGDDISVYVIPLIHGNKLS
Nature of the assay: MST; unlabelled Rab protein (16 serial dilutions) titrated against 100 nM fluorescent mNeon PPM1H variant; 30 min in the dark; Monolith NT.115; three independent measurements with different protein preparations. As to conditions: both partners purified.

B1: Rab12 Q101L (full length, nonprenylated, nonphosphorylated) (natural protein, human, UniProt Q6IQ22-2 1-244, looked up)
chain: MDPGAALQRRAGGGGGLGAGSPALSGGQGRRRKQPPRPADFKLQVIIIGSRGVGKTSLMERFTDDTFCEACKSTVGVDFKIKTVELRGKKIRLQIWDTAGLERFNSITSAYYRSAKGIILVYDITKKETFDDLPKWMKMIDKYASEDAELLLVGNKLDCETDREITRQQGEKFAQQITGMRFCEASAKDNFNVDEIFLKLVDDILKKMPLDILRNELSNSILSLQPEPEIPPELPPPRPHVRCC
notes: also called His SUMO Rab12 (full length) Q101L; source: E. coli, purified (TALON, Ulp1 cleavage, Superdex 200), 20 μM GTP in all buffers
For the molecule B1, the Kd is 7400 nM. This lies in the single-digit micromolar range.

B2: His Rab8A Q67L (full length, nonprenylated, nonphosphorylated) (natural protein, human, UniProt P61006 1-207, looked up)
chain: MAKTYDYLFKLLLIGDSGVGKTCVLFRFSEDAFNSTFISTIGIDFKIRTIELDGKRIKLQIWDTAGLERFRTITTAYYRGAMGIMLVYDITNEKSFDNIRNWIRNIEEHASADVEKMILGNKCDVNDKRQVSKERGEKLALDYGIKFMETSAKANINVENAFFTLARDIKAKMDKKLEGNSPQGSNQGVKITPDQQKRSSFFRCVLL
notes: subcloned from HA-Rab8A (DU35414) into pET14b; also called Rab8A-6XHis; unphosphorylated Rab8A; source: E. coli, purified (TALON, Superdex 75), 20 μM GTP in all buffers
For B2, the Kd amounted to 1400 nM.

B3: Thiophosphorylated His Rab8A Q67L (natural protein, human, UniProt P61006 1-207, looked up)
chain: B2 chain
modifications: thiophosphorylated with ATPγS by MST3 kinase (fully modified by PhosTag gel); the residue is not given
notes: Rab8A GTPase, full length, Q67L, thiophosphorylated form of m5; also called Thio-pRab8A (Q67L); thiophosphorylated Rab8A; source: E. coli, purified (TALON, Superdex 75); thiophosphorylated in vitro overnight at 4 °C by His-MST3 kinase with ATPγS
In turn, B3 showed a Kd of 1000 nM.

B4: Rab10 Q68L (full length, nonprenylated, nonphosphorylated) (natural protein, human, UniProt P61026 1-200, looked up)
chain: MAKKTYDLLFKLLLIGDSGVGKTCVLFRFSDDAFNTTFISTIGIDFKIKTVELQGKKIKLQIWDTAGLERFHTITTSYYRGAMGIMLVYDITNGKSFENISKWLRNIDEHANEDVERMLLGNKCDMDDKRVVPKGKGEQIAREHGIRFFETSAKANINIEKAFLTLAEDILRKTPVKEPNSENVDISSGGGVTGWKSKCC
notes: also called His SUMO Rab10 (full length) Q68L; untagged Rab10 Q68L; source: E. coli, purified (TALON, Ulp1 cleavage, Superdex 200), 20 μM GTP in all buffers
In turn, B4 registered a dissociation constant Kd of 1300 nM.

A word on the Kd: it is the free concentration of one partner at which half of the binding sites on the other are occupied at equilibrium, for simple one-to-one binding.
